According to patent US20240285753A1 (DUKE UNIVERSITY, published 2024):

Target: MERS spike (2P) (MERS-CoV, UniProt K9N5Q8 18-1291)
Test: ELISA, coated spike, mAb titrated

B1: DH1509 (antibody, V domains shown)
VH: QVQLVESGGGVVQPGRSLRLSCAASGFTLSSHGIHWVRQAPGKGLEWVAVTSFDGRNKKFGDSVKGRFTISRDNSKNTVYLQMNSLRTEDTAVYYCAKDWGDDYSRWYFDLWGRGTLVTVSS
VL: DIQMTQSPSSLSASVGDRVTITCQASHDITKYLNWYQQKPGRAPKLLIYDASNLKTGVPSRFSGSGSGTDFTFTITSLQPEDLATYYCQQSDVLPITFGQGTRLEIK
- EC50 (read off the curve): ~0.2 µg/mL
